Paper doi:10.1101/2025.03.06.641827 (bioRxiv, 2025)

B1: Staphylococcus aureus threonine dehydratase (IlvA), full length (residues 1-422) (enzyme, UniProt Q2FF63 1-422, looked up)
chain: MTVKTTVSTKDIDEAFLRLKDIVKETPLQLDHYLSQKYDCKVYLKREDLQWVRSFKLRGAYNAISVLSDEAKSKGITCASAGNHAQGVAYTAKKLNLNAVIFMPVTTPLQKVNQVKFFGNSNVEVVLTGDTFDHCLAEALTYTSEHQMNFIDPFNNVHTISGQGTLAKEMLEQAKSDNVNFDYLFAAIGGGGLISGISTYFKTYSPTTKIIGVEPSGASSMYESVVVNNQVVTLPNIDKFVDGASVARVGDITFEIAKENVDDYVQVDEGAVCSTILDMYSKQAIVAEPAGALSVSALENYKDHIKGKTVVCVISGGNNDINRMKEIEERSLLYEEMKHYFILNFPQRPGALREFVNDVLGPQDDITKFEYLKKSSQNTGTVIIGIQLKDHDDLIQLKQRVNHFDPSNIYINENKMLYSLLI
B2: Staphylococcus aureus IlvA regulatory domain (residues 336-422) (domain or fragment, UniProt Q2FF63 336-422, looked up)
chain: EMKHYFILNFPQRPGALREFVNDVLGPQDDITKFEYLKKSSQNTGTVIIGIQLKDHDDLIQLKQRVNHFDPSNIYINENKMLYSLLI
B3: Escherichia coli IlvA regulatory domain (amino acids 335-514) (domain or fragment, UniProt P04968 335-514, looked up)
chain: EQREALLAVTIPEEKGSFLKFCQLLGGRSVTEFNYRFADAKNACIFVGVRLSRGLEERKEILQMLNDGGYSVVDLSDDEMAKLHVRYMVGGRPSHPLQERLYSFEFPESPGALLRFLNTLGTYWNISLFHYRSHGTDYGRVLAAFELGDHEPDFETRLNELGYDCHDETNNPAFRFFLAG
B4: Escherichia coli IlvA regulatory domain (335-514) F352A mutant (domain or fragment, UniProt P04968 335-514, looked up)
chain: EQREALLAVTIPEEKGSALKFCQLLGGRSVTEFNYRFADAKNACIFVGVRLSRGLEERKEILQMLNDGGYSVVDLSDDEMAKLHVRYMVGGRPSHPLQERLYSFEFPESPGALLRFLNTLGTYWNISLFHYRSHGTDYGRVLAAFELGDHEPDFETRLNELGYDCHDETNNPAFRFFLAG
B5: Escherichia coli threonine dehydratase (IlvA), full length, His-tagged (enzyme, UniProt P04968 1-514, looked up)
chain: MADSQPLSGAPEGAEYLRAVLRAPVYEAAQVTPLQKMEKLSSRLDNVILVKREDRQPVHSFKLRGAYAMMAGLTEEQKAHGVITASAGNHAQGVAFSSARLGVKALIVMPTATADIKVDAVRGFGGEVLLHGANFDEAKAKAIELSQQQGFTWVPPFDHPMVIAGQGTLALELLQQDAHLDRVFVPVGGGGLAAGVAVLIKQLMPQIKVIAVEAEDSACLKAALDAGHPVDLPRVGLFAEGVAVKRIGDETFRLCQEYLDDIITVDSDAICAAMKDLFEDVRAVAEPSGALALAGMKKYIALHNIRGERLAHILSGANVNFHGLRYVSERCELGEQREALLAVTIPEEKGSFLKFCQLLGGRSVTEFNYRFADAKNACIFVGVRLSRGLEERKEILQMLNDGGYSVVDLSDDEMAKLHVRYMVGGRPSHPLQERLYSFEFPESPGALLRFLNTLGTYWNISLFHYRSHGTDYGRVLAAFELGDHEPDFETRLNELGYDCHDETNNPAFRFFLAG
modifications: PLP covalently bound to Lys62

Columns and labels:
SEC = molecular target: the molecule itself; test: SEC
crystal structure [1] = molecular target: the molecule itself; test: crystal structure
crystal structure [2] = molecular target: the molecule itself; test: crystal structure; remark: listed apart in the source

| Protein | stoichiometry N (SEC) | other results |
| --- | --- | --- |
| B1 | 8 | – |
| B2 | 4 | – |
| B3 | 2 | – |
| B4 | – | stoichiometry N (crystal structure [1]): 2 |
| B5 | – | stoichiometry N (crystal structure [2]): 4 |
